Drawing on paper PMC12713436 (2025), this text covers Kd for 1 molecule.

The target in this assay is secretory immunoglobulin A1 (sIgA1) from human colostrum (human (endogenous in colostrum), UniProt P01591 23-159; P01833 19-603, dense O-glycosylation, predominantly in the hinge region). The assay can be described thus: apparent Kd from DLS Hill fit, h = 2.04.
Chain of secretory immunoglobulin A1 (sIgA1) from human colostrum (chain, as listed by the source, chain 1 of 3): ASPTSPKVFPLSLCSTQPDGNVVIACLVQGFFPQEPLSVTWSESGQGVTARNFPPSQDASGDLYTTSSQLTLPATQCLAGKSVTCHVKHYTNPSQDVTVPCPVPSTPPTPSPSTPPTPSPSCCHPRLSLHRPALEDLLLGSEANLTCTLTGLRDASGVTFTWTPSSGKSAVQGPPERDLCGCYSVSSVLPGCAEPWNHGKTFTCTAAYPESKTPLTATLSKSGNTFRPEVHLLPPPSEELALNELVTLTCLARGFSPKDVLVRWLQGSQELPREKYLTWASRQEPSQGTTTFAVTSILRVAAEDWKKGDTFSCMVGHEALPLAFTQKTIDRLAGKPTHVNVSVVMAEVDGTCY
Chain of secretory immunoglobulin A1 (sIgA1) from human colostrum (P01591 23-159, chain 2 of 3): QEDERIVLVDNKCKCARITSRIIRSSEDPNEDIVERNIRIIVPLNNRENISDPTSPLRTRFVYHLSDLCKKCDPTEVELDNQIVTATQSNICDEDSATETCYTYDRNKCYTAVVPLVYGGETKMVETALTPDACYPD
Chain of secretory immunoglobulin A1 (sIgA1) from human colostrum (P01833 19-603, chain 3 of 3): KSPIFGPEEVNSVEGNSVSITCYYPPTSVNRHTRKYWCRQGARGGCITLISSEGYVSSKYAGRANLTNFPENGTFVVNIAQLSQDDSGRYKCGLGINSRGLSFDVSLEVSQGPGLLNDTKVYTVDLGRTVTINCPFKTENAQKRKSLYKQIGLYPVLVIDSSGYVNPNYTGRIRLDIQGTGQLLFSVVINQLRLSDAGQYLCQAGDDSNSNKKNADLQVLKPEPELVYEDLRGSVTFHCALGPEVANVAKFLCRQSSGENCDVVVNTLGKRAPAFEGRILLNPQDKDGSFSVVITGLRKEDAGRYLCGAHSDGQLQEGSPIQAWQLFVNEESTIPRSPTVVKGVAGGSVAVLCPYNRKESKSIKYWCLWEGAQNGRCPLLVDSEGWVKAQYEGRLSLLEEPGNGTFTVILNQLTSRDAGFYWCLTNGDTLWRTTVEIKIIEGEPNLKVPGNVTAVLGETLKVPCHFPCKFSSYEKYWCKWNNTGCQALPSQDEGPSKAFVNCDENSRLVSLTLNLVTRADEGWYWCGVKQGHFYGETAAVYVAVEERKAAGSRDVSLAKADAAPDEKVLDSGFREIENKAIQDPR

B1: frutalin (FTL), galactose-specific jacalin-related lectin from Artocarpus altilis (syn. Artocarpus incisa) seeds (natural protein)
chain 1: GKAFDDGAFTGIREINLSYNKETAIGDFQVIYDLNGSPFVGQNHTSFITGFTPVKISLDFPSEYIIEVSGHTGKVSGYVVVRSLAFKTNKKTYGPYGVTSGTPFNLPIENGLIVGFKGSIGYWLDYFSMYLSL
chain 2: AEQSGKSQTVIVGPWGAQVS
modifications: α-chain glycoisoforms (differential glycosylation and limited proteolysis)
For the molecule B1, the Kd stood at 930 nM.
